Source: publication PMC8939767 (Science Translational Medicine, 2022)
Where no end group is shown, it is not given here. The star is where a group is joined. Biotin = O=C1N[C@H]2[C@H](CS[C@H]2CCCCC(=O)*)N1

How the values were obtained:
[1] = molecular target: T1, HCoV-HKU1 stem peptide variant, 20-mer with 5 additional residues at the N-terminus (HCoV-HKU1 isolate N1 (AAT98580.1), UniProt Q5MQD0, biotin on the N-terminus); experiment: BLI; conditions: both partners purified
T1 construct: also called 20-mer (brick red); source: synthetic peptide
T1 chain: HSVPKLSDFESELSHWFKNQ

[2] = molecular target: T2, HCoV-HKU1 stem peptide variant, 20-mer with 5 additional residues at the C-terminus (HCoV-HKU1 isolate N1 (AAT98580.1), UniProt Q5MQD0, biotin on the N-terminus); experiment: BLI; conditions: both partners purified
T2 construct: also called 20-mer (orange); source: synthetic peptide
T2 chain: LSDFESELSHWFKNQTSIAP

[3] = molecular target: T3, HCoV-HKU1 25-residue S2 stem peptide (residues 1226-1250) (HCoV-HKU1 isolate N1 (AAT98580.1), UniProt Q5MQD0, biotin on the N-terminus); experiment: BLI; conditions: both partners purified
T3 construct: also called 25-mer (red); 25-mer S2 peptide from HCoV-HKU1; source: synthetic peptide
T3 chain: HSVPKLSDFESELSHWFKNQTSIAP

[4] = molecular target: T4, HCoV-HKU1 soluble spike ectodomain protein (HCoV-HKU1, isolate N1 by the GenBank …, UniProt Q5MQD0); experiment: BLI; conditions: both partners purified
T4 construct: also called HCoV-HKU1 soluble spike protein; source: FreeStyle293-F, transfected, purified (Ni-NTA, SEC)

[5] = molecular target: T5, HCoV-HKU1 spike protein, full length, expressed on 293T cells (HCoV-HKU1, isolate N1 by the GenBank …, UniProt Q5MQD0); experiment: flow cytometry on cells; conditions: one partner purified
T5 construct: source: HEK293T, transfected, on the cell surface
T5 sequence (Q5MQD0 13-1356): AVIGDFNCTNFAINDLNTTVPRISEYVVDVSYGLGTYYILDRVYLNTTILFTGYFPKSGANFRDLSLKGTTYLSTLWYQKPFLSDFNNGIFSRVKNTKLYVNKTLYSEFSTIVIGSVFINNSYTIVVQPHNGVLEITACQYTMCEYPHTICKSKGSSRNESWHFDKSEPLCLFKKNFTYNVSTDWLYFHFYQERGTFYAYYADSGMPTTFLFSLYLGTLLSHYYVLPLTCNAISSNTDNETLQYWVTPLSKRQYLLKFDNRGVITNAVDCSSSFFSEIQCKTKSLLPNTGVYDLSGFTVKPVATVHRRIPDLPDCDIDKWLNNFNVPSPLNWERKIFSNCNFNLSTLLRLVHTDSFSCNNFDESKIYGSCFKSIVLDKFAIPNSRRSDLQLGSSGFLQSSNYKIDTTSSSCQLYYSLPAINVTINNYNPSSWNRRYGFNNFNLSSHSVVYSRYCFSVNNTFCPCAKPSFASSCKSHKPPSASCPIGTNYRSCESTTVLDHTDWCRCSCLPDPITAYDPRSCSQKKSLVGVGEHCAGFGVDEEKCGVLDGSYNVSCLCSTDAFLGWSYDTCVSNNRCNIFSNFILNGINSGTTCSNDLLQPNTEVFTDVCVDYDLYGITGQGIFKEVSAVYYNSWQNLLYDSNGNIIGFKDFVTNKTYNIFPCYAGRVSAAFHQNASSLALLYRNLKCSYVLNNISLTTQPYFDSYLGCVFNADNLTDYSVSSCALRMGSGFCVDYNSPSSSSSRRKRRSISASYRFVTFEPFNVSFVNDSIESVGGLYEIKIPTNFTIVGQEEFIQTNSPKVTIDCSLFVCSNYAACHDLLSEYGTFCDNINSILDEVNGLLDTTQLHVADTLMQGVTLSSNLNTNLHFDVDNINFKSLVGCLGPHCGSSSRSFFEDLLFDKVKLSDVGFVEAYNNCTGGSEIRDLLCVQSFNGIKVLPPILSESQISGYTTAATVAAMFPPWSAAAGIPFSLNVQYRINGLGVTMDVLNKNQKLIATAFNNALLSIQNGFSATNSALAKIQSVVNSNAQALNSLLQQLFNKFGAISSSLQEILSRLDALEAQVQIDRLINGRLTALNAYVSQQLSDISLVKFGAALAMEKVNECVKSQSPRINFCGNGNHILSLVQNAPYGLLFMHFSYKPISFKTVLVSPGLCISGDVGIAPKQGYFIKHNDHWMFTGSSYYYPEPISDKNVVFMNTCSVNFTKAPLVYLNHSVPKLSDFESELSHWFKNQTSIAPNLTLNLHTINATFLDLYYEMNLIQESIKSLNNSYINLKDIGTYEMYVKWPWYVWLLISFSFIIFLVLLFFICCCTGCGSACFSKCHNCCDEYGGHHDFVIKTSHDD

[6] = molecular target: T6, HCoV-HKU1 S2 95th 15-mer stem peptide (residues 1231-1245), biotinylated (HCoV-HKU1 isolate N1 (AAT98580.1), UniProt Q5MQD0); experiment: ELISA; […], mAb in 1% BSA/PBST, […]; conditions: both partners purified
T6 construct: also called 95th 15-mer peptide; HCoV-HKU1 95th 15-mer stem peptide; source: synthetic peptide (A&A Labs, Synthetic Biomolecules)
T6 chain: Biotin-LSDFESELSHWFKNQ

[7] = molecular target: T7, SARS-CoV-2 S2 stem-helix 25-mer peptide, N-terminal biotinylated (wild type) (SARS-CoV-2, UniProt P0DTC2, biotin on the N-terminus); experiment: BLI; […], Octet buffer (PBS plus 0.1% Tween-20), association 120 s, […]; conditions: both partners purified
T7 construct: also called SARS-CoV-2 stem-helix peptide; SARS-CoV-2 stem peptide (25mer); source: synthetic peptide
T7 chain: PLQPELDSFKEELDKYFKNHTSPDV

[8] = molecular target: T8, SARS-CoV-2 25-mer S2 stem peptide (as used for the crystal and for competition of neutralization) (SARS-CoV-2, UniProt P0DTC2); experiment: crystal structure; conditions: both partners purified
T8 construct: also called SARS-CoV-2 S2 peptide; SARS-CoV-2 stem peptide; source: synthetic peptide
T8 chain: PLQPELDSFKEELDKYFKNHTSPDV

Measured: binding result

B1: CC40.8 broadly neutralizing antibody (IgG) (antibody, V domains shown)
VH: EVQLLESGGGLVQPGGSLRLSCAASGFTFSSYVMTWARQAPGKGLEWVSAISGTGYTYYADSVKGRFTVSRDNSKNTLFLQMSSLRAEDTAVYYCAITMAPVVWGQGTTVTVSS
VL: SYELTQPPSVSVSPGQTARITCSGDALPKRYAYWYQQKSGQAPILVIYEDKKRPSGIPERLSGSKSGTVATLTISGAQVEDEADYYCYSTDSSGNHAVFGGGTQLTVL
notes: also called CC40.8 bnAb; CC40.8 mAb
not listed: [8]
binds: all other assays above

B2: CC40.8 Fab (Fab, V domains shown)
VH: B1 VH
VL: B1 VL
notes: also called CC40.8 antibody Fab fragment
binds: [8]
